According to the Human Domainome abundance scans (Beltran et al. 2025):
± gives the uncertainty stated by the source.

B1: Intersectin-1, residues 909 to 971; numbered along this chain, Q15811 (parent)
chain: QGEKVEGLQAQALYPWRAKKDNHLNFNKNDVITVLEQQDMWWFGEVQGQKGWFPKSYVKLISG

Variants of: B1
Assay: abundance fitness (aPCA) (normalised: wild type 0, dead -1); higher = more abundant; growth selection in yeast, the domain comes from the species named
Conditions: Homo sapiens
Work on QGEKVEGLQAQALYPWRAKKDNHLNFNKNDVITVLEQQDMWWFGEVQGQKGWFPKWYVKLISG yielded an abundance fitness of -0.393 ± 0.17.
With QGEKVEGLQAQALYPWRAKKDNHLNFNKNDVITVLEQQDMWWFGEVQGQKGWFPKSYFKLISG the abundance fitness was -0.821 ± 0.37.
With QGEKVEGLQAQALYPWRAKKDNHLNFNKNDVITVLEQQDMWWFGEVQGQKGWFPKSYTKLISG the abundance fitness was -0.395 ± 0.15.
Variant QGEKVEGLQAQALYPWRAKKDNHLNFNKNDVITVLEQQDMWWFGEVQGQKGWFPKSYSKLISG has an abundance fitness of -0.816 ± 0.23.
QGEKVEGLQAQALYPWRAKKDNHLNFNKNDVITVLEQQDMWWFGEVNGQKGWFPKSYVKLISG gave an abundance fitness of -0.084 ± 0.34.
Variant QGEKVEGLQAQALYPWRAKKDNHLNFNKNDVITVLEQQDMWWFGEVGGQKGWFPKSYVKLISG has an abundance fitness of -0.009 ± 0.073.
For QGEKVEGLQAQALYPWRAKKDNHLNFNKNDVITVLEQQDMWWFGEVEGQKGWFPKSYVKLISG, the abundance fitness was 0.017 ± 0.12.
Work on QGEKVEGLQAQALYPWRAKKDNHLNFNKNDVITVLEQQDMWWFGEVAGQKGWFPKSYVKLISG yielded an abundance fitness of 0.009 ± 0.084.
QGEKVEGLQAQALYPWRAKKDNHLNFNKNDVITVLEQQDMWWFGEVQGQDGWFPKSYVKLISG showed an abundance fitness of -0.256 ± 0.2.
In the case of QGEKVEGLQAQALYPWRAKKDNHLNFNKNDVITVLEQQDMWWFGEVQGQHGWFPKSYVKLISG, the abundance fitness is reported as -0.271 ± 0.23.
In the case of QGEKVEGLQAQALYPWRAKKDNHLNFNKNDVITVLEQQDMWQFGEVQGQKGWFPKSYVKLISG, the abundance fitness is reported as -0.837 ± 0.24.
QGEKVEGLQAQALYPWRAKKDNHLNFNKNDVITVLEQQDMWTFGEVQGQKGWFPKSYVKLISG showed an abundance fitness of -0.527 ± 0.085.
For QGEKVEGLQAQALYPWRAKKDNHLNFNKNDVITVLEQQDMWDFGEVQGQKGWFPKSYVKLISG, the abundance fitness was -0.429 ± 0.25.
With QGEKVEGLQAQALYPWRAKKDNHLNFNKNDVITVLEQQDMWIFGEVQGQKGWFPKSYVKLISG the abundance fitness was -0.605 ± 0.29.
QGEKVEGLQAQALYPWRAKKDNHLNFNKNDVITVLEQQDMWWFGEVQGQKGWFPKSYVKLISC showed an abundance fitness of 0.026 ± 0.12.
With QGEKVEGLQAQALYPWRAKKDNHLNFNKNDVITVLEQQDMWWFGEVQGQKGWFPKSYVKLISI the abundance fitness was -0.151 ± 0.35.
WGEKVEGLQAQALYPWRAKKDNHLNFNKNDVITVLEQQDMWWFGEVQGQKGWFPKSYVKLISG showed an abundance fitness of -0.34 ± 0.16.
For QGEKVEGLQAQALYPWRAKKDNHLNFNKNDVITVLEQQDMWWFGEVQGQKGWFSKSYVKLISG, the abundance fitness was -0.88 ± 0.27.
QGEKVEGLQAQALYPWRAKKDNHLNFNKNDVITVLEQQDMWWFGEVQGQKGWFQKSYVKLISG showed an abundance fitness of -0.688 ± 0.3.
With QGEKAEGLQAQALYPWRAKKDNHLNFNKNDVITVLEQQDMWWFGEVQGQKGWFPKSYVKLISG the abundance fitness was -0.008 ± 0.11.
For QGDKVEGLQAQALYPWRAKKDNHLNFNKNDVITVLEQQDMWWFGEVQGQKGWFPKSYVKLISG, the abundance fitness was -0.021 ± 0.26.
Work on QGHKVEGLQAQALYPWRAKKDNHLNFNKNDVITVLEQQDMWWFGEVQGQKGWFPKSYVKLISG yielded an abundance fitness of -0.088 ± 0.46.
Variant QGEKVEGLQAQALHPWRAKKDNHLNFNKNDVITVLEQQDMWWFGEVQGQKGWFPKSYVKLISG has an abundance fitness of -0.103 ± 0.23.
In the case of QGEKVEGLQAQALYPWRAKKDNHLNRNKNDVITVLEQQDMWWFGEVQGQKGWFPKSYVKLISG, the abundance fitness is reported as -1.01 ± 0.22.
In the case of QGEKVEGLQAQALYPWRAKKDNHLNFNKNDVITVLEQQDMWWFGEVQGQKGWFPKSWVKLISG, the abundance fitness is reported as -0.258 ± 0.36.
Variant QGEKVEGLQAQALYPWRAKKDNHLNFNKNDVITVLEQQDMWWFGEVQGQKGWFPKSPVKLISG has an abundance fitness of -1.02 ± 0.4.
Work on QGEKVEGLQAQASYPWRAKKDNHLNFNKNDVITVLEQQDMWWFGEVQGQKGWFPKSYVKLISG yielded an abundance fitness of -0.412 ± 0.2.
With QGEKVEGLQAQALYPWRAKKDNHLNFNKNDVITVLEQQLMWWFGEVQGQKGWFPKSYVKLISG the abundance fitness was -0.385 ± 0.17.
Work on QGEKVEGLQAQALYPWRAKKDNHLNFNKNDVITVLEQQDMWWFGEVQGQKGWEPKSYVKLISG yielded an abundance fitness of -0.858 ± 0.46.
With QGEKVEGLQAQALYPWRAKKDNHLNFNKNDVITVLEQQDMWWFGEVQGQKGWRPKSYVKLISG the abundance fitness was -0.951 ± 0.23.
QGEKVEGLQAQALYPWRAKKDNHLNFNKNDVITVLEQQDMWWFGEVQGQKGWLPKSYVKLISG gave an abundance fitness of -0.701 ± 0.13.
Variant QGEKVEGLQAQALYPWRAKKQNHLNFNKNDVITVLEQQDMWWFGEVQGQKGWFPKSYVKLISG has an abundance fitness of 0.145 ± 0.17.
With QGEKVEGLQAQALYPWRAKKVNHLNFNKNDVITVLEQQDMWWFGEVQGQKGWFPKSYVKLISG the abundance fitness was 0.007 ± 0.051.
With QGEKVEGLQAQALYPWRAKKDNHLNFNPNDVITVLEQQDMWWFGEVQGQKGWFPKSYVKLISG the abundance fitness was -0.584 ± 0.32.
QGEKVEGLQAQALYPWRAKWDNHLNFNKNDVITVLEQQDMWWFGEVQGQKGWFPKSYVKLISG showed an abundance fitness of -0.156 ± 0.06.
With QGEKVEGLQAQALYPWRAKKDQHLNFNKNDVITVLEQQDMWWFGEVQGQKGWFPKSYVKLISG the abundance fitness was 0.015 ± 0.15.
In the case of QGEKVEGLQAQALYPWRAKKDPHLNFNKNDVITVLEQQDMWWFGEVQGQKGWFPKSYVKLISG, the abundance fitness is reported as 0.037 ± 0.2.
Variant QGEKVEGLQAQALYPWRAKKDNHLNFNKNDVISVLEQQDMWWFGEVQGQKGWFPKSYVKLISG has an abundance fitness of -0.104 ± 0.074.
In the case of QGEKVEGLQAQALYPWRAKKDNILNFNKNDVITVLEQQDMWWFGEVQGQKGWFPKSYVKLISG, the abundance fitness is reported as -0.551 ± 0.35.
In the case of QGEKVEGLQAQALYPWRAKKDNHLNFNKNDVITVLEQQDMWWFGEVQGQKGWFPKSYVKLKSG, the abundance fitness is reported as -0.079 ± 0.16.
For QGEKVEGLQAQALYPWRAKKDNHLNFNKNDVITVLEQQDMWWFGEVQGQKGWFPKSYVKLASG, the abundance fitness was -0.073 ± 0.097.
Work on QGEKVEGLQAQSLYPWRAKKDNHLNFNKNDVITVLEQQDMWWFGEVQGQKGWFPKSYVKLISG yielded an abundance fitness of -0.577 ± 0.2.
